# Experimental data: patent publication US20240132624A1 (Ablynx, published 2024)
# How the values were obtained:
# [1] = target: T1, mouse serum albumin (mouse, UniProt P07724 25-608); experiment: SPR pH 7.4
# T1 construct: also called MSA
# Protocol: (§1) The affinity of the purified, multivalent ISVD constructs for human and mouse serum albumin (HSA and MSA, respectively) was determined on the ProteOn XPR36 (BioRad Laboratories, Inc.) instrument. […] The ISVD constructs were injected at 6 different concentrations (between 1 and 500 nM) and allowed to associate for 120 s at 45 μL/min and dissociate for 600s-3600s at 45 μL/min. Evaluation of the sensorgrams was based on the 1:1 Langmuir dissociation model simultaneously fitting on and off-rates.
# [2] = target: T2, human serum albumin (human, UniProt P02768 25-609); experiment: SPR pH 7.4
# T2 construct: also called HSA
# Protocol: as §1
# [3] = target: T1, mouse serum albumin; experiment: SPR pH 6.0
# Protocol: as §1
# [4] = target: T2, human serum albumin; experiment: SPR pH 6.0
# Protocol: as §1
# [5] = target: T3, human FcRn/b2M (human, UniProt P61769 21-119, biotinylated); experiment: SPR pH 6.0; pH 6.0; human FcRn
# T3 construct: bought recombinant biotinylated protein (ACRO FCM-H82W4 or Immunitrack ITF01); also called hFcRn; hFcRn/hb2M
# Protocol: (§2) The affinity of the purified, multivalent ISVD constructs for human and cyno FcRn was determined on the MASS-2 (Sierra sensors, Gmbh) instrument, hFcRn/hb2M and cFcRn/cb2M was captured on a Biotin-tag Capture Chip or a High Capacity Amine Chip (pre-immobilized with neutravidin). The ISVD constructs were injected at 6 different concentrations (between 1 and 4000 nM) and allowed to associate for 120 s at 45 μL/min and dissociate for 600 s-3600 s at 45 μL/min. […] Evaluation of the sensorgrams was based on the 1:1 Langmuir dissociation model simultaneously fitting on and off-rates.
# [6] = target: T4, cyno FcRn/b2M (cyno, UniProt Q8SPV9 24-297; Q8SPW0 21-119, biotinylated); experiment: SPR pH 6.0; pH 6.0; cyno FcRn
# T4 construct: bought recombinant biotinylated protein (Immunitrack ITF05 or ACRO FCM-C82W5); also called cFcRn; cFcRn/cb2M
# Protocol: as §2
# [7] = target: T4, cyno FcRn/b2M; experiment: SPR pH 6.0; pH 6.0; off-rate of periplasmic extract, cyno FcRn
# Protocol: (§3) All kinetic measurements have been performed on ProteOn XPR36 (BioRad Laboratories, Inc.), MASS-2 (Sierra sensors, Gmbh) or SPR-32 (Bruker Corporation). […] The phytip purified periplasmic extracts were diluted 1:10 in running buffer (CPA+150 mM NaCl+0.005% Tw20 at pH 5.5, pH 6.0 or pH 7.4) and injected over the ligand surfaces (association: 120 s at 45 μL/min; dissociation: 600s-3600 s at 45 μL/min). Experiments were carried out at 25° C.
# [8] = target: T3, human FcRn/b2M; experiment: SPR pH 6.0; pH 6.0; off-rate of periplasmic extract, human FcRn
# Protocol: as §3
# T4 sequence (Q8SPV9 24-297 limits assumed, chain 1 of 2): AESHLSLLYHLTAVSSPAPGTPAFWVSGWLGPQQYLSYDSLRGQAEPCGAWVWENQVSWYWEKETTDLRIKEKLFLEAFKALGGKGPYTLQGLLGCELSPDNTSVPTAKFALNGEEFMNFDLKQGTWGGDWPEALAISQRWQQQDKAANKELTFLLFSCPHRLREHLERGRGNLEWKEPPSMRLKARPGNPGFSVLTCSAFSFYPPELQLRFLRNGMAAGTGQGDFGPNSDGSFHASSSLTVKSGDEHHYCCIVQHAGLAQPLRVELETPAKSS
# T4 sequence (Q8SPW0 21-119 limits assumed, chain 2 of 2): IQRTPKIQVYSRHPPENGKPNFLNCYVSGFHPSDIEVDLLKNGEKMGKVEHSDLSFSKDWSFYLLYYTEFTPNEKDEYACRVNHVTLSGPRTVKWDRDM
# T3 sequence (chain, as listed by the source limits assumed, chain 1 of 2): as the sequence (Q8SPV9 24-297 limits assumed, chain 1 of 2) above, with D39N, Q44E, S99G, G189S, N190S, M217L, T269S counted along it
# T3 sequence (P61769 21-119 limits assumed, chain 2 of 2): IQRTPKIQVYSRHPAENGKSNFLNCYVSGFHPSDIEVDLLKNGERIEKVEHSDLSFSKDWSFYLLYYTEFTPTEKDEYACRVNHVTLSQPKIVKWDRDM
# T1 sequence (P07724 25-608 limits assumed): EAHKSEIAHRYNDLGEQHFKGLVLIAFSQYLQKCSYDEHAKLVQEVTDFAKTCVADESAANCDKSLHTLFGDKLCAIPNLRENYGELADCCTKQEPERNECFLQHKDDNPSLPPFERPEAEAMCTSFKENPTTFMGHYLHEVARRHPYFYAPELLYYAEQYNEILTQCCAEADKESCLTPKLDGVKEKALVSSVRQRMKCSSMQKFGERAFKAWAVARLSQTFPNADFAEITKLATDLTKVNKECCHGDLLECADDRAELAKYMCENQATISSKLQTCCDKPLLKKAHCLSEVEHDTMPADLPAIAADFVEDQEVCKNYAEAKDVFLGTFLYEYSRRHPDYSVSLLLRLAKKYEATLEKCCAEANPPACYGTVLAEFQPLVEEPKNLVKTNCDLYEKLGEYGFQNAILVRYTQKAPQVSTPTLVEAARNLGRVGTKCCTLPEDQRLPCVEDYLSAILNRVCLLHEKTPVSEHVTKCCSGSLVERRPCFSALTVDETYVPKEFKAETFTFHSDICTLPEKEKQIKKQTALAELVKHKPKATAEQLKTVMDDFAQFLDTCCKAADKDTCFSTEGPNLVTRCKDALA
binder,measurement,setting,value
"T026301195 (bispecific antibody, name in Kabat numbering, bispecific ISVD construct; also called T0263018B11(E1D, S31E, A33D, W100cS)-35GS-ALB23002-A) DVQLVESGGGVVQPGGSLRLSCAASGFTFSEYDMYWVRQAPGKGLEWVSAISSGGGSTDYADSVKGRFTISRDNSKNTLYLQMNSLRPEDTALYYCAADTLYTSLTSYSYWGQGTLVTVSSGGGGSGGGGSGGGGSGGGGSGGGGSGGGGSGGGGSEVQLVESGGGVVQPGGSLRLSCAASGFTFRSFGMSWVRQAPGKGPEWVSSISGSGSDTLYADSVKGRFTISRDNSKNTLYLQMNSLRPEDTALYYCTIGGSLSRSSQGTLVTVSSA",Kd,[1],0.12 µM
same,Kd,[2],0.013 µM
same,Kd,[3],0.077 µM
same,Kd,[4],0.0061 µM
same,Kd,[5],0.68 µM
same,Kd,[6],0.67 µM
"T0263018B11 T96E (VHH, name in Kabat numbering, FLAG3-His6 tagged) VHH: EVQLVESGGGVVQPGGSLRLSCAASGFTFSSYAMYWVRQAPGKGLEWVSAISSGGGSTDYADSVKGRFTISRDNSKNTLYLQMNSLRPEDTALYYCAADELYTSLTWYSYWGQGTLVTVSS",koff,[7],0.0093 s⁻¹
same,koff,[8],0.012 s⁻¹
